Source: the supplement of paper PMC10126150
± gives the standard deviation of the averaged measurements.

Each sequence was assayed on ATP (assay: switch fluorescence ratio, 500 uM ATP over buffer (Cy3 cluster intensity, sum of 5 cycles each) (fold (ratio)); higher = stronger signal-on switching upon ATP binding; sequences stand for … in TCGTCGGCAGCGTCAGATGTGTATAAGAGACAGTTTTTTTTTTTTTTTTTTTTTTTTT…TC). Details: aptamer strand: ATP DNA aptamer (quencher-CACCTGGGGGAGTATTGCGGAGGAAGG + anchor), 100 nM annealed; ATP concentration: 500 uM.
Summary of the method: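 After annealing to 100 nM quencher-labelled ATP aptamer, Cy3-labelled switching-strand clusters on a modified Illumina MiSeq flow-cell were imaged in selection buffer. A second image followed after 15 min with 500 uM ATP at 22 °C, and five such buffer/ATP cycles were done, each separated by NaOH stripping and re-annealing. The fluorescence ratio, averaged per switch-domain sequence, is summed target-cycle over summed buffer-cycle Cy3 intensity per cluster, with clusters outside 100-1000 RFU excluded.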
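Note: ATP exposure 15 min at 22 °C before imaging.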

AAAGACCGTG and AAAGACGCGC are within error of each other in switch fluorescence ratio: 1.02 ± 0.033 for the first, 0.998 ± 0.038 for the second.

AAAGAGGGTA and AAAGAGGGTT are within error of each other in switch fluorescence ratio: 0.963 ± 0.055 for the first, 1.02 ± 0.019 for the second.

Going from AAAGATGAAT to AAAGATGGGA, the switch fluorescence ratio falls from 1.04 ± 0.011 to 1.003 ± 0.0081.

AAAGATGTCA and AAAGATTATT are the same in switch fluorescence ratio: 1.005 ± 0.0029 for the first, 1 ± 0.021 for the second.

First: AAAGATTTCG
Second: AAAGCCACGC
The switch fluorescence ratio of the first is lower: 0.971 ± 0.027 for the first, 1.11 ± 0.032 for the second.

AAAGCGCGCT and AAAGCGGGGC are within error of each other in switch fluorescence ratio: 1 ± 0.07 for the first, 1.02 ± 0.015 for the second.

Compared with AAAGCTCTGT, AAAGCTGGAG is higher in switch fluorescence ratio: 0.992 ± 0.012 for the first, 1.03 ± 0.021 for the second.

Going from AAAGGAAGAA to AAAGGACGTG, the switch fluorescence ratio falls from 1.013 ± 0.0073 to 0.9356 ± 0.0076.

Going from AAAGGAGGAG to AAAGGCACCC, the switch fluorescence ratio rises from 0.991 ± 0.038 to 1.05 ± 0.019.

First: AAAGGCCATG
Second: AAAGGCCCGA
The switch fluorescence ratio of the first is higher: 1.02 ± 0.0045 for the first, 1.0084 ± 0.00039 for the second.

AAAGGCCGT and AAAGGCCTTA are within error of each other in switch fluorescence ratio: 1.016 ± 0.0077 for the first, 1.01 ± 0.045 for the second.

AAAGGCGTAA and AAAGGGAGGT are within error of each other in switch fluorescence ratio: 0.997 ± 0.013 for the first, 1.03 ± 0.041 for the second.

AAAGGGCTGC and AAAGGGGACA are the same in switch fluorescence ratio: 1.02 ± 0.13 for the first, 1.02 ± 0.054 for the second.

AAAGGGGCGG and AAAGGGGGAC are within error of each other in switch fluorescence ratio: 1.02 ± 0.022 for the first, 1.04 ± 0.089 for the second.

AAAGGGGGC and AAAGGGGGCG are within error of each other in switch fluorescence ratio: 0.974 ± 0.067 for the first, 0.99 ± 0.017 for the second.

AAAGGGGGTA and AAAGGGGTGA are within error of each other in switch fluorescence ratio: 0.986 ± 0.015 for the first, 0.9698 ± 0.0057 for the second.

AAAGGGTTCG and AAAGGGTTTC are the same in switch fluorescence ratio: 1 ± 0.034 for the first, 1 ± 0.038 for the second.

AAAGGTAAGG and AAAGGTCTGA are within error of each other in switch fluorescence ratio: 0.965 ± 0.016 for the first, 0.98 ± 0.0099 for the second.

AAAGGTTCTG and AAAGTAAAGT are within error of each other in switch fluorescence ratio: 0.992 ± 0.072 for the first, 1.01 ± 0.028 for the second.

Compared with AAAGTACGGT, AAAGTAGGAG is lower in switch fluorescence ratio: 1.21 ± 0.024 for the first, 0.98 ± 0.048 for the second.

AAAGTAGTTA and AAAGTATCAG are within error of each other in switch fluorescence ratio: 0.991 ± 0.015 for the first, 1.002 ± 0.0081 for the second.

Going from AAAGTCTAC to AAAGTGATTG, the switch fluorescence ratio falls from 1 ± 0.017 to 0.9723 ± 0.0028.

AAAGTGGGAG and AAAGTGGGG are within error of each other in switch fluorescence ratio: 0.971 ± 0.012 for the first, 0.973 ± 0.016 for the second.

AAAGTGGGGA and AAAGTTAATG are within error of each other in switch fluorescence ratio: 1.03 ± 0.038 for the first, 1.009 ± 0.0074 for the second.

AAAGTTACTG and AAAGTTCCTA are within error of each other in switch fluorescence ratio: 1.03 ± 0.077 for the first, 0.968 ± 0.033 for the second.

AAAGTTGGCT and AAAGTTTCCG are within error of each other in switch fluorescence ratio: 1.02 ± 0.046 for the first, 1 ± 0.0018 for the second.

AAATAATTGC and AAATACACGA are within error of each other in switch fluorescence ratio: 1.01 ± 0.038 for the first, 1.06 ± 0.029 for the second.

Going from AAATACGAGA to AAATACGTTT, the switch fluorescence ratio falls from 1.06 ± 0.024 to 1 ± 0.016.

AAATAGCTTT and AAATAGTGGG are within error of each other in switch fluorescence ratio: 0.9909 ± 0.0026 for the first, 0.986 ± 0.026 for the second.

AAATATAAGC and AAATATATCT are within error of each other in switch fluorescence ratio: 1.03 ± 0.044 for the first, 0.987 ± 0.012 for the second.

AAATATGTGG and AAATATTTAT are within error of each other in switch fluorescence ratio: 0.989 ± 0.02 for the first, 0.971 ± 0.018 for the second.

AAATCAATGT and AAATCCCTAC are within error of each other in switch fluorescence ratio: 1.02 ± 0.035 for the first, 1.06 ± 0.028 for the second.

AAATCGGGAA and AAATCGGTGT are within error of each other in switch fluorescence ratio: 1.34 ± 0.44 for the first, 1 ± 0.037 for the second.

AAATCGTGCA and AAATCTGAAG are within error of each other in switch fluorescence ratio: 1 ± 0.03 for the first, 0.9798 ± 0.0027 for the second.

Compared with AAATGAAGGT, AAATGACGTT is lower in switch fluorescence ratio: 1.01 ± 0.013 for the first, 0.9688 ± 0.0078 for the second.

AAATGAGCGG and AAATGAGTGG are within error of each other in switch fluorescence ratio: 0.9824 ± 0.0046 for the first, 0.9783 ± 0.006 for the second.

AAATGCTATG and AAATGCTCGG are within error of each other in switch fluorescence ratio: 1.01 ± 0.031 for the first, 0.993 ± 0.03 for the second.

AAATGGAATG and AAATGGATCA are within error of each other in switch fluorescence ratio: 0.983 ± 0.046 for the first, 1.024 ± 0.0029 for the second.

AAATGGCACG and AAATGGCATT are within error of each other in switch fluorescence ratio: 0.973 ± 0.024 for the first, 1 ± 0.033 for the second.

AAATGGGGGG and AAATGGTTTT are within error of each other in switch fluorescence ratio: 0.974 ± 0.017 for the first, 1 ± 0.024 for the second.

First: AAATGTCTTG
Second: AAATGTGACG
The switch fluorescence ratio of the first is lower: 0.955 ± 0.043 for the first, 1.03 ± 0.028 for the second.

AAATGTTGAG and AAATGTTTCA are within error of each other in switch fluorescence ratio: 0.975 ± 0.045 for the first, 0.996 ± 0.022 for the second.

AAATGTTTGG and AAATGTTTTC are within error of each other in switch fluorescence ratio: 1.01 ± 0.017 for the first, 0.979 ± 0.015 for the second.

AAATTACGGG and AAATTATAGG are within error of each other in switch fluorescence ratio: 1.045 ± 0.0046 for the first, 1.01 ± 0.032 for the second.

AAATTATTT and AAATTCATAG are the same in switch fluorescence ratio: 1.02 ± 0.051 for the first, 1.019 ± 0.0033 for the second.

AAATTCATGG and AAATTCATGT are within error of each other in switch fluorescence ratio: 0.9809 ± 0.0021 for the first, 0.996 ± 0.028 for the second.

AAATTCGAAT and AAATTCGGGC are within error of each other in switch fluorescence ratio: 1.02 ± 0.041 for the first, 0.973 ± 0.014 for the second.

First: AAATTCTGGG
Second: AAATTGAGGA
The switch fluorescence ratio of the first is lower: 0.996 ± 0.0075 for the first, 1.017 ± 0.0096 for the second.

Compared with AAATTGATAT, AAATTGCGGC is lower in switch fluorescence ratio: 1.02 ± 0.025 for the first, 0.975 ± 0.012 for the second.

AAATTGGACG and AAATTGGGAA are within error of each other in switch fluorescence ratio: 1.08 ± 0.04 for the first, 1.01 ± 0.035 for the second.
